The experiment concerns the target mPVR-Ig (extracellular portion of mouse PVR fused to the Fc portion of human IgG1) (mouse). In words: SPR.

The values that follow come from paper PMC3863769.

B1: mDNAM1-Ig (extracellular portion of mouse DNAM1 fused to the Fc portion of human IgG1) (Fc fusion)
chain: EETLWDTTVRLSETMTLECVYPLTHNLTQVEWTKNTGTKTVSIAVYNPNHNMHIESNYLHRVHFLNSTVGFRNMSLSFYNASEADIGIYSCLFHAFPNGPWEKKIKVVWSDSFEIAAPSDSYLSAEPGQDVTLTCQLPRTWPVQQVIWEKVQPHQVDILASCNLSQETRYTSKYLRQTRSNCSQGSMKSILIIPNAMAADSGLYRCRSEAITGKNKSFVIRLIITDGGTNKHFILP
In general, Kd refers to a measure of binding affinity in units of concentration. A low value points to a tighter complex. The koff is the rate constant with which the complex falls apart. Read a low koff as slow dissociation. As usually defined, the kon is a measure of how fast the partners come together. Molecule B1 registered a Kd of 5.16 µM, an off-rate constant (koff) of 0.00259 s⁻¹ and a kon of 502 M⁻¹ s⁻¹.
